Experimental data reported in PMC8674365, “PP2A phosphatase inhibition is anti-fibrotic through Ser77 phosphorylation-mediated ARNT/ARNT homodimer formation” (Scientific Reports, 2021).

Assays:
[1] = target: the molecule itself; test: native MS; liquid native MALDI mass spectrometry of endogenous ARNT pulled down from total kidney lysates of LB100-treated UUO mice; eluted in 0.3% TFA, mixed with ammonium acetate buffer (100 mM, pH 9), glycerol
[2] = target: the molecule itself; test: immunoprecipitation and MALDI-TOF mass spectrometry; endogenous ARNT pulled down from extracts of LB100-treated MCT cells with ARNT antibody, eluted with 0.3% TFA, sinapinic acid matrix, linear positive mode

B1: Endogenous ARNT of mouse kidney (UUO-challenged C57BL/6 mice) (natural protein)
chain: not shown
notes: Aryl hydrocarbon receptor nuclear translocator (ARNT), endogenous in kidney tissue of C57BL/6 mice; source: endogenous, total kidney lysate of mice, immunoprecipitated with ARNT antibody
With B1 the “stoichiometry N” value [1] was 2.

B2: Endogenous ARNT of mouse tubular epithelial cells (MCT) (natural protein)
chain: not shown
notes: Aryl hydrocarbon receptor nuclear translocator (ARNT), endogenous in the murine proximal tubular epithelial cell line MCT; source: endogenous, MCT cell extract, immunoprecipitated with ARNT antibody
With B2 the “stoichiometry N” value [2] was 2.
